Variants at the floor of the assay were thinned out.
Experiments:
biotinyl-Val-oxazolone = experiment: self-aminoacylation, catalytic enhancement (BVO) (fold over background); higher = more active; k-Seq, kA / k0A0; sequences stand for … in GGGAAUGGAUCCACAUCUACGAAUUC…UUCACUGCAGACUUGACGAAGCUG
In short: (§1)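 The uncatalyzed rate is the low-activity peak of a bimodal Gaussian fit, and catalytic enhancement is median kA divided by it. The kA values came from pseudo-first-order fits, with 1000 bootstraps, of per-sequence fraction reacted measured by streptavidin capture, triplicate qPCR and Illumina sequencing. Mutagenized RNA pools with a 21-nt variable region (0.43 μM) were reacted with each biotinyl-aminoacyl-oxazolone at 2–1250 μM in 50 μL HEPES/NaCl/KCl/MgCl2/CaCl2 buffer with 5% acetonitrile, pH 6.9–7.0, for 90 minutes at room temperature.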

biotinyl-Trp-oxazolone = experiment: self-aminoacylation, catalytic enhancement (BWO) (fold over background); higher = more active; k-Seq, kA / k0A0; sequences stand for … in GGGAAUGGAUCCACAUCUACGAAUUC…UUCACUGCAGACUUGACGAAGCUG
In short: as §1

biotinyl-Leu-oxazolone = experiment: self-aminoacylation, catalytic enhancement (BLO) (fold over background); higher = more active; k-Seq, kA / k0A0; sequences stand for … in GGGAAUGGAUCCACAUCUACGAAUUC…UUCACUGCAGACUUGACGAAGCUG
In short: as §1

biotinyl-Met-oxazolone = experiment: self-aminoacylation, catalytic enhancement (BMO) (fold over background); higher = more active; k-Seq, kA / k0A0; sequences stand for … in GGGAAUGGAUCCACAUCUACGAAUUC…UUCACUGCAGACUUGACGAAGCUG
In short: as §1

biotinyl-Phe-oxazolone = experiment: self-aminoacylation, catalytic enhancement (BFO) (fold over background); higher = more active; k-Seq, kA / k0A0; sequences stand for … in GGGAAUGGAUCCACAUCUACGAAUUC…UUCACUGCAGACUUGACGAAGCUG
In short: as §1

biotinyl-Ile-oxazolone = experiment: self-aminoacylation, catalytic enhancement (BIO) (fold over background); higher = more active; k-Seq, kA / k0A0; sequences stand for … in GGGAAUGGAUCCACAUCUACGAAUUC…UUCACUGCAGACUUGACGAAGCUG
In short: as §1

Row | Sequence | self-aminoacylation (biotinyl-Val-oxazolone) | self-aminoacylation (biotinyl-Trp-oxazolone) | self-aminoacylation (biotinyl-Leu-oxazolone) | self-aminoacylation (biotinyl-Met-oxazolone) | self-aminoacylation (biotinyl-Phe-oxazolone) | self-aminoacylation (biotinyl-Ile-oxazolone)
1 | AUUCAGCUAGGUCAUUGGGUG [Fam2.2 aminoacylation ribozyme variant] | 2.55 | 3.25 | 2.38 | 2.62 | 15 | 2.04
2 | AUUCAGCUAGGUCGUCGGGUG [Fam2.2 aminoacylation ribozyme variant] | 2.62 | 3.08 | 3.24 | 3.24 | 13.1 | 2.53
3 | AUUCAGCUAGGUGAUCGGGUG [Fam2.2 aminoacylation ribozyme variant] | 4.04 | 4.6 | 5.32 | 4.52 | 25.3 | 3.84
4 | AUUCAGCUAUGUCAUCGGGUG [Fam2.2 aminoacylation ribozyme variant] | 2.63 | 3.19 | 3.03 | 3.17 | 16.6 | 2.19
5 | AUUCAGUUAGGUCAUCGGGUG [Fam2.2 aminoacylation ribozyme variant] | 3.12 | 4.04 | 4.86 | 3.8 | 25.6 | 3.04
6 | AUUCAUCUAAGUCAUCGGGUG [Fam2.2 aminoacylation ribozyme variant] | 5.64 | 10.9 | 15 | 10.9 | 86.6 | 6.41
7 | AUUCAUCUACGUCAUCGGGUG [Fam2.2 aminoacylation ribozyme variant] | 3.82 | 7.17 | 8.74 | 6.12 | 53 | 3.69
8 | AUUCAUCUAGGUCACCGGGUG [Fam2.2 aminoacylation ribozyme variant] | 3.34 | 5.32 | 6.82 | 5.35 | 36.8 | 3.85
9 | AUUCAUCUAGGUCAUCGGGUC [Fam2.2 aminoacylation ribozyme variant] | 1.28 | 1.02 | 1.22 | 1.21 | 2.17 | 1.07
10 | AUUCAUCUAGGUCAUCGGGUG [Fam2.2 aminoacylation ribozyme variant] | 4.7 | 7.12 | 9.76 | 7.46 | 39.2 | 4.88
11 | AUUCAUCUAGGUCGUCGGGUG [Fam2.2 aminoacylation ribozyme variant] | 1.86 | 1.68 | 2.27 | 2.1 | 4.73 | 1.93
12 | AUUCCCAUGGUCAUCGAGUGA [Fam2.1 aminoacylation ribozyme variant] | 5.75 | 12.9 | 11.3 | 10.4 | 51.4 | 5.75
13 | AUUCCCCCAGGUCAUCGGGUG [Fam2.2 aminoacylation ribozyme variant] | 11.4 | 17.1 | 24.7 | 17.1 | 174 | 14
14 | AUUCCCCUAGAUCAUCGGGUG [Fam2.2 aminoacylation ribozyme variant] | 6.64 | 9.85 | 11.9 | 9.42 | 75.1 | 7.3
15 | AUUCCCCUAGGGCAUCGGGUG [Fam2.2 aminoacylation ribozyme variant] | 6.4 | 10.4 | 12.4 | 10.3 | 42.8 | 7.87
16 | AUUCCCCUAGGUCACCGGGUG [Fam2.2 aminoacylation ribozyme variant] | 13.4 | 21.7 | 26.2 | 20.3 | 163 | 13.9
17 | AUUCCCCUAGGUCAUAGGGUG [Fam2.2 aminoacylation ribozyme variant] | 3.08 | 4.78 | 6.57 | 4.99 | 17.1 | 3.38
18 | AUUCCCCUAGGUCAUCGGGGG [Fam2.2 aminoacylation ribozyme variant] | 10.2 | 13.6 | 13.3 | 8.39 | 51.6 | 8.54
19 | AUUCCCCUAGGUCAUCGGGUC [Fam2.2 aminoacylation ribozyme variant] | 5.52 | 4 | 5.52 | 4.08 | 22.8 | 4.5
20 | AUUCCCCUAGGUCAUGGGGUG [Fam2.2 aminoacylation ribozyme variant] | 11.1 | 15.8 | 24.7 | 19 | 167 | 11.3
21 | AUUCCCCUAGGUCCUCGGGUG [Fam2.2 aminoacylation ribozyme variant] | 17.1 | 24.6 | 37.9 | 26.9 | 241 | 19.6
22 | AUUCCCCUAGGUCUUCGGGUG [Fam2.2 aminoacylation ribozyme variant] | 13.9 | 21.8 | 26.7 | 19.3 | 127 | 13.7
23 | AUUCCCCUCGUCAUCGAGUGA [Fam2.1 aminoacylation ribozyme variant] | 3.46 | 5.17 | 4.4 | 4.49 | 15.8 | 3.49
24 | AUUCCCCUGGCCAUCGAGUGA [Fam2.1 aminoacylation ribozyme variant] | 4.87 | 6.48 | 8.45 | 6.17 | 46.6 | 3.34
25 | AUUCCCCUGGGCAUCGAGUGA [Fam2.1 aminoacylation ribozyme variant] | 5.1 | 11.6 | 11.1 | 10.8 | 65.9 | 5.22
26 | AUUCCCCUGGUCACCGAGUGA [Fam2.1 aminoacylation ribozyme variant] | 5.07 | 12.6 | 11.1 | 9.9 | 73.1 | 5.93

Row | Sequence | self-aminoacylation (biotinyl-Val-oxazolone) | self-aminoacylation (biotinyl-Trp-oxazolone) | self-aminoacylation (biotinyl-Leu-oxazolone) | self-aminoacylation (biotinyl-Met-oxazolone) | self-aminoacylation (biotinyl-Phe-oxazolone) | self-aminoacylation (biotinyl-Ile-oxazolone)
27 | AUUCCCCUGGUCAUAGAGUGA [Fam2.1 aminoacylation ribozyme variant] | 5.89 | 13.1 | 10.1 | 10 | 70.9 | 5.4
28 | AUUCCCCUGGUCAUCGAGCGA [Fam2.1 aminoacylation ribozyme variant] | 2.17 | 1.53 | 2.75 | 2.63 | 8.04 | 2.14
29 | AUUCCCCUGGUCAUCGAGUUA [Fam2.1 aminoacylation ribozyme variant] | 1.36 | 1.08 | 1.19 | 1.09 | 1.25 | 1.33
30 | AUUCCCCUGGUCAUCUAGUGA [Fam2.1 aminoacylation ribozyme variant] | 6.23 | 13 | 11.4 | 11.9 | 85.5 | 5.92
31 | AUUCCCCUGGUCAUGGAGUGA [Fam2.1 aminoacylation ribozyme variant] | 3.12 | 4.27 | 3.99 | 3.85 | 16.3 | 2.92
32 | AUUCCCCUUGGUCAUCGGGUG [Fam2.2 aminoacylation ribozyme variant] | 13.7 | 18.9 | 27.4 | 20.4 | 165 | 13.4
33 | AUUCCCGUGGUCAUCGAGUGA [Fam2.1 aminoacylation ribozyme variant] | 5.81 | 11.3 | 9.05 | 8.45 | 63.3 | 5.17
34 | AUUCCUCUAGGUCAUCGGGUG [Fam2.2 aminoacylation ribozyme variant] | 10.5 | 16.1 | 23.7 | 16.6 | 154 | 10.4
35 | AUUCCUCUGGUCAUCGAGUGA [Fam2.1 aminoacylation ribozyme variant] | 4.02 | 7.73 | 6.46 | 6.73 | 31.6 | 3.75
36 | AUUCGCCUAGAUCAUCGGGUG [Fam2.2 aminoacylation ribozyme variant] | 2.27 | 3.12 | 4.04 | 2.69 | 19.1 | 2.08
37 | AUUCGCCUAGGUCAUCGGAUG [Fam2.2 aminoacylation ribozyme variant] | 1.07 | 0.704 | 0.903 | 0.94 | 0.493 | 0.941
38 | AUUCGCCUAGGUCAUCGGGAG [Fam2.2 aminoacylation ribozyme variant] | 1.54 | 0.98 | 1.87 | 1.51 | 2.55 | 1.29
39 | AUUCUCCAAGGUCAUCGGGUG [Fam2.2 aminoacylation ribozyme variant] | 7.99 | 10.7 | 15.6 | 11.8 | 102 | 6.8
40 | AUUCUCCUAGGUAAUCGGGUG [Fam2.2 aminoacylation ribozyme variant] | 2.45 | 4.29 | 6.03 | 4.1 | 33.1 | 2.55
41 | AUUCUCCUAGGUCACCGGGUG [Fam2.2 aminoacylation ribozyme variant] | 5.85 | 7.7 | 10.2 | 7.25 | 39.8 | 5.47
42 | AUUCUCCUAGGUCAUCAGGUG [Fam2.2 aminoacylation ribozyme variant] | 2.3 | 2.38 | 2.71 | 2.62 | 6.58 | 2.12
43 | AUUCUCCUAGGUCAUCGCGUG [Fam2.2 aminoacylation ribozyme variant] | 12.2 | 20.6 | 27.3 | 20.9 | 170 | 11.4
44 | AUUCUCCUAGGUCAUCGGAUG [Fam2.2 aminoacylation ribozyme variant] | 1.1 | 0.795 | 0.907 | 0.975 | 0.611 | 1.03
45 | AUUCUCCUAGGUCCUCGGGUG [Fam2.2 aminoacylation ribozyme variant] | 4.54 | 7.62 | 10.5 | 6.44 | 54.1 | 4.72
46 | AUUCUCCUAGGUCGUCGGGUG [Fam2.2 aminoacylation ribozyme variant] | 2.38 | 2.28 | 2.85 | 2.72 | 12.2 | 2.55
47 | AUUGACAUAGGUCAUCGGGUG [Fam2.2 aminoacylation ribozyme variant] | 4.42 | 8.04 | 8.84 | 7.3 | 48.4 | 5.14
48 | AUUGACCUAGGUCAACGGGUG [Fam2.2 aminoacylation ribozyme variant] | 2.31 | 2.72 | 2.43 | 2.6 | 8.47 | 2.46
49 | AUUGACCUAGGUCAUCGGGCG [Fam2.2 aminoacylation ribozyme variant] | 4.14 | 4.79 | 6 | 5.01 | 15 | 3.78
50 | AUUGACCUAGGUCAUCGGUUG [Fam2.2 aminoacylation ribozyme variant] | 1.29 | 1.65 | 1.41 | 1.08 | 3.99 | 1.34
51 | AUUGACCUAGGUCAUGGGGUG [Fam2.2 aminoacylation ribozyme variant] | 2.9 | 3.74 | 3.32 | 2.92 | 17 | 3.08

Source: the supplement of paper PMC9233669
